Results on two substances are retold here after PMC11263391, “Molecular insights into degron recognition by CRL5^ASB7 ubiquitin ligase” (Nature Communications, 2024).

For test [1], the target named is ASB7-Elongin B-Elongin C ternary complex (wild-type ASB7, residues 11-318) (human) (UniProt Q9H672). Briefly: ITC; peptide in the syringe titrated into ASB7-Elongin B/C in the cell; MicroCal PEAQ-ITC, 16 °C, 20 mM Tris-HCl pH 7.5, 150 mM NaCl; 39–156 μM protein, 0.8–4 mM peptide; repeated three times, mean ± SD. (In general: ITC needs no label: the signal is the heat of the interaction.)

Test [2] has as its target ASB7 Phe182 alanine mutant in complex with Elongin B/C (human) (UniProt Q9H672). In words: ITC; peptide (0.8–4 mM) titrated into the ASB7 complex (39–156 µM); 16 °C; 20 mM Tris-HCl pH 7.5, 150 mM NaCl; MicroCal PEAQ-ITC.
Test [3] addresses ASB7 R160A mutant in complex with Elongin B/C (human) (UniProt Q9H672). The description is as above.
The target of test [4] is ASB7 with Trp118 in ANK3 or Phe82 in ANK4 replaced with alanine. The test is described as above.
For test [5], the target named is ASB7 D116A mutant in complex with Elongin B/C (human) (UniProt Q9H672). Described as above.
The target in test [6] is ASB7 Arg185-to-alanine mutant in complex with Elongin B/C (human) (UniProt Q9H672). The description is as above.

For the substance LZTS1 degron peptide, 22 residues (…), in test [1], the dissociation constant Kd (in general, a measure of binding affinity in units of concentration) is 600 nM and the stoichiometry N (commonly the number of molecules, sites or subunits per partner or assembly) worked out at 0.75.

As for LZTS1-degron 23-residue peptide, the fold decrease in binding affinity against wild-type ASB7 was 3 fold in test [2], 3 fold in test [3], 10 to 30 fold in test [4] and 4 fold in test [6]. In addition, in test [5], the fold reduction in binding against wild-type ASB7 amounted to 7 fold.
